Assays:
Experiment in all cases: native gel or EMSA + SEC; native PAGE without SDS (7.5% separating gel, running buffer 0.05 M Tris, 0.038 M glycine, pH 8.3) against the standards TA-3HMU and TA-3FCR (dimers), catalase and TA-3N5M (tetramers); SEC on HiPrep 16/60 Sephacryl S-100 HR in 50 mM sodium phosphate pH 8.0; subunit size by SDS-PAGE
[1] = target: TA-10, amine transaminase from Burkholderia multivorans (Burkholderia multivorans)
[2] = target: TA-5, putative transaminase from Halomonas elongata (Halomonas elongata)
[3] = target: TA-9, putative transaminase from Burkholderia cepacia (Burkholderia cepacia)
[4] = target: the molecule itself

With “TA-10, amine transaminase from Burkholderia multivorans (enzyme)” the stoichiometry N [1] was 4.

Work on “TA-5, putative transaminase from Halomonas elongata (enzyme)” yielded a stoichiometry N [2] of 4.

“TA-9, putative transaminase from Burkholderia cepacia (enzyme)” showed a stoichiometry N [3] of 4.

B1: TA-1, taurine transaminase from Bilophila wadsworthia (enzyme, UniProt Q9APM5 1-456, looked up)
chain: MTYDKAELVALDKKYVWHHLTQHKNFEPAIYVKGEGMRITDIDGKTYLDAVSGGVWTVNVGYGRKEIVDAVAKQMMEMCYFANGIGNVPTIKFSEKLISKMPGMSRVYLSNSGSEANEKAFKIVRQIGQLKHGGKKTGILYRARDYHGTTIGTLSACGQFERKVQYGPFAPGFYEFPDCDVYRSKFGDCADLGVKMAKQLEEVILTVGPDELGAVIVEPMTAGGGILVPPAGYYETIREICDKYELLLIIDEVVCGLGRTGKWFGYQHFNVQPDIVTMAKGVASGYAPISCTVTTEKVFQDFVNDPADTDAYFRDISTFGGCTSGPAAALANIEIIERENLLENCTKMGDRLLEGLKGLMAKHPIIGDVRGKGLFAGIEIVKDRATKEPIAEAVANAMVGAAKQAGVLIGKTSRSFREFNNTLTLCPALIATEADIDEIVAGIDKAFTTVEQKFGL
notes: TA-1, taurine-pyruvate transaminase, Bilophila wadsworthia; codon-optimized gene subcloned with NdeI and BamHI into pET22b or pET28b; Purified and stored with PLP as cofactor; also called taurine-pyruvate transaminase; source: E. coli BL21, purified (Ni-NTA, desalting)
With B1 the “stoichiometry N” value [4] was 4.
